Reference: paper PMC2253824

Target: TTC4, endogenous in Hela cells (human (endogenous in Hela)) (UniProt O95801)
Test: co-IP; SDS-PAGE of the anti-TTC4 immune pellet stained with colloidal coomassie blue; data not shown

TTC4, endogenous in Hela cells (human (endogenous in Hela)), sequence (O95801 whole entry): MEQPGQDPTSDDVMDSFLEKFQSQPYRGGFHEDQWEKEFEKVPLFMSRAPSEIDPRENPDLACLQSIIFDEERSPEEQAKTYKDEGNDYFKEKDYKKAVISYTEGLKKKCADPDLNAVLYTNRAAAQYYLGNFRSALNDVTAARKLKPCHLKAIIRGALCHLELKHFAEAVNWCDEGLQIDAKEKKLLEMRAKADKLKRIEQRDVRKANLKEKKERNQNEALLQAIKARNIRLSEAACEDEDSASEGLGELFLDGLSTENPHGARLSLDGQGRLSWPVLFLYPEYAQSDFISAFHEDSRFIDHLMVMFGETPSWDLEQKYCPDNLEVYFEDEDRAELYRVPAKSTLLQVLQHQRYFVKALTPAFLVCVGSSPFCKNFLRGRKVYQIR
HSP70, endogenous in Hela cells, sequence (P11142 whole entry): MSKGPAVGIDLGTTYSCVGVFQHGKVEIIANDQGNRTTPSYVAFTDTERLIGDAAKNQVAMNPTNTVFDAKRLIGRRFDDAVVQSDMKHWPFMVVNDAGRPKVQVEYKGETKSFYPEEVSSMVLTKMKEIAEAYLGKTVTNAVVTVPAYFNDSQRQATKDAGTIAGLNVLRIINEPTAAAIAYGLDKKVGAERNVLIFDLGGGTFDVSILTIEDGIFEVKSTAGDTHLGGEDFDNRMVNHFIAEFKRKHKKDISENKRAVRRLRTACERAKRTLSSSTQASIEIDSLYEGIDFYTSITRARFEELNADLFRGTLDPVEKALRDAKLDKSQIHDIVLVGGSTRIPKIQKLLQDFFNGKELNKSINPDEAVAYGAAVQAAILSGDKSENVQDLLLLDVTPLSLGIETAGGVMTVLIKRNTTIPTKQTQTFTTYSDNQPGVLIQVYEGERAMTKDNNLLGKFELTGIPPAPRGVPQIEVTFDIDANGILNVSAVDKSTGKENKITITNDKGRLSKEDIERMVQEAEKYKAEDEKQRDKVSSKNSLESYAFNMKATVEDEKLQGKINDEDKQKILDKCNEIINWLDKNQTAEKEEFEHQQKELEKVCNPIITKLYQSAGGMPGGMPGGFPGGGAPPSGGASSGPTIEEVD

level in the immune pellet (colloidal coomassie): 20%
Substance: HSP70, endogenous in Hela cells (from UniProt P11142 1-646) (natural protein)
